Measured values: patent publication US20260055186A1 (REPERTOIRE IMMUNE MEDICINES, published 2026)
One block for each binder: values may come before it.

Experiments:
mouse CD8 on mouse cells = target: T1, mouse CD8 on mouse cells (mouse, UniProt P01731 28-247); experiment: flow cytometry of peripheral blood, B16-F10-bearing mice, 4 days after the first dose (in vivo)
T1 construct: whole, on cells; also called mCD8
Procedure: Mice were injected weekly for a total of 4 doses, at a dose equivalent to 10 μg of recombinant IL12. Tumor volume was measured twice per week, and mice were euthanized if tumor volume exceeded 2000 mm³. […] Specifically, in the MC38 model, treatment with the CD8IgG-IL12 (LC) Clone 2 construct controlled tumor growth up to day 21 and yielded 3/8 complete responders, whereas treatment with the CD8IgG-IL12 (1× HC) construct controlled tumor growth for the entire duration of the study and yielded 7/8 complete responders (FIGS. 6A-6C). In the B16-F10 model, which is typically less responsive to immunotherapy, both constructs limited tumor growth for up to 14 days after the initial dose (FIGS. 7A-7C).
In the same study, the two anti-CD8:IL-12 fusion constructs were also evaluated for their ability to be retained in tissues. Peripheral blood cells were collected from MC38 and B16-F10 tumor-bearing mice 4 days after administration of the first dose of the IL-12 construct. Samples were analyzed by flow cytometry. In the case of the MC38 tumor-bearing mice, IL-12 was detected on the surface of CD8+ T cells 4 days post-treatment with either of the two anti-CD8:IL-12 fusion protein constructs, but not on the surface of CD4+ T cells or NK cells (FIG. 8A). […]

[1] = target: T2, cynomolgus monkey CD8 on cynomolgus cells (cynomolgus monkey); experiment: cell-based or functional assay
[2] = target: T3, human CD8 on human T cells (human, UniProt P01732 22-235); experiment: flow cytometry, CD8+ T cells in human PBMCs, 30 min 37 °C, anti-IL-12p40
T3 construct: whole, on cells; the antibodies were raised against human CD8 alpha; also called CD8 on human CD8+ T cells; hCD8
Procedure: (§1) Fusion proteins H6K3-IgG-IL12 (LC) and H6K3-IgG-IL12 (1×HC) were also evaluated for their ability to bind CD8-expressing cells in human and cynomolgus monkey PBMCs. Briefly, 5×10⁴ human PBMCs (StemCell Technologies) or cynomolgus monkey PBMCs (iQ Biosciences) were incubated with 7 serial 5-fold dilutions of one of the two aforementioned H6K3-IgG-IL12 constructs for 30 minutes at 37° C. Cells were washed twice with MACS buffer and stained with viability dye and fluorophore-conjugated antibodies against IL-12 and cell-surface markers for 20 minutes at 4° C. Cells were analyzed on a FACSCelesta using Diva software (BD Biosciences). Binding activity for all treatments was quantified and represented as the mean fluorescence intensity values of IL-12 on human CD8+ T cells and NK cells (FIGS. 17A-17B) and on cynomolgus monkey CD8+ T cells and NK cells (FIGS. 17C-17D). For the H6K3-IgG-IL12 (LC) treatments, results are also reported as the frequency of IL-12+CD8+ T cells and NK cells (FIG. 17E). As shown in FIGS. 17A-17D, both H6K3-IgG-IL12 (LC) and H6K3-IgG-IL12 (1×HC) were able to selectively bind human CD8+ T cells over NK cells at a range of concentrations. […] Where the cells were incubated with 0.128 nM of the IL-12 fusion constructs, the number of live CD45+ cells staining as CD8+ and IL-12 were assessed by flow cytometry. […]

[3] = target: T2, cynomolgus monkey CD8 on cynomolgus …; experiment: flow cytometry, NK cells in cynomolgus PBMCs (CD8-expressing by paragraph 442), 30 min 37 °C, anti-IL-12p40
Procedure: as §1

[4] = target: T3, human CD8 on human T cells; experiment: flow cytometry, CD8+ T cells in human PBMCs, 30 min 37 °C, anti-human IL-12 AF647
Procedure: Fusion proteins H6K3-IgG-IL12 (LC) and H6K3-IgG-IL12 (1×HC) were evaluated for their ability to selectively bind human CD8+ T cells in PBMCs. Briefly, 5×10⁴ human PBMCs (StemCell Technologies) were incubated with 7 serial 5-fold dilutions of one of the two aforementioned H6K3-IgG-IL12 constructs for 30 minutes at 37° C. Cells were washed twice with MACS buffer and stained for 20 minutes at 4° C. with fluorophore-conjugated anti-CD3, anti-CD4, anti-CD8, anti-CD56, and anti-IL12 antibodies, and viability dye. Cells were analyzed on a FACSCelesta using Diva software (BD Biosciences). Binding activity was quantified and represented as the mean fluorescent intensity values of IL-12 on either CD8+ T cells or NK Cells. As shown in FIGS. 16A-16B, both H6K3-IgG-IL12 (LC) and H6K3-IgG-IL12 (1×HC) were able to selectively bind human CD8+ T cells over NK cells at a range of concentrations.

[5] = target: T3, human CD8 on human T cells; experiment: cell-based or functional assay
[6] = target: T2, cynomolgus monkey CD8 on cynomolgus …; experiment: flow cytometry, CD8+ T cells in cynomolgus PBMCs, 30 min 37 °C, anti-IL-12p40
Procedure: as §1

T3 sequence (P01732 22-235): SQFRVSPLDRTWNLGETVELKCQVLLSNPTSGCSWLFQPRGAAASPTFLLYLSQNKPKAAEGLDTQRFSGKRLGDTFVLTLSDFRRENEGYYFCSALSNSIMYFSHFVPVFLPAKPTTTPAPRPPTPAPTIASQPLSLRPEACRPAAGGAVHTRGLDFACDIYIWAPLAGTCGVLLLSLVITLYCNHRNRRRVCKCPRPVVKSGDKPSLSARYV
T1 sequence (P01731 28-247): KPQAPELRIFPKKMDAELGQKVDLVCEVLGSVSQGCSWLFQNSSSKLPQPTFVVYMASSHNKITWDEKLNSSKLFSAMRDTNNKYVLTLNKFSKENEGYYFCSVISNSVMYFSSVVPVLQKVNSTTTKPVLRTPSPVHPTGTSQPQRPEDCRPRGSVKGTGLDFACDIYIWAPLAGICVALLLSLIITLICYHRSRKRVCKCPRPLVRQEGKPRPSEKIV

B1: rIL-12 (ligand)
alpha: RVIPVSGPARCLSQSRNLLKTTDDMVKTAREKLKHYSCTAEDIDHEDITRDQTSTLKTCLPLELHKNESCLATRETSSTTRGSCLPPQKTSLMMTLCLGSIYEDLKMYQTEFQAINAALQNHNHQQIILDKGMLVAIDELMQSLNHNGETLRQKPPVGEADPYRVKMKLCILLHAFSTRVVTINRVMGYLSSA
beta: MWELEKDVYVVEVDWTPDAPGETVNLTCDTPEEDDITWTSDQRHGVIGSGKTLTITVKEFLDAGQYTCHKGGETLSHSHLLLHKKENGIWSTEILKNFKNKTFLKCEAPNYSGRFTCSWLVQRNMDLKFNIKSSSSSPDSRAVTCGMASLSAEKVTLDQRDYEKYSVSCQEDVTCPTAEETLPIELALEARQQNKYENYSTSFFIRDIIKPDPPKNLQMKPLKNSQVEVSWEYPDSWSTPHSYFSLKFFVRIQRKKEKMKETEEGCNQKGAFLVEKTSTEVQCKGGNVCVQAQDRYYNSSCSKWACVPCRVRS
notes: untargeted control; also called rmIL-12; non-targeted recombinant mouse IL-12; copies: 1 + 1
binding result (mouse CD8 on mouse cells): no binding (tested: dose equivalent to 10 µg IL-12, i.v.)

EC50 of pSTAT4 signaling in cynomolgus CD8+ T cells [1]: 2.3 pM
EC50 of pSTAT4 signaling in cynomolgus NK cells [1]: 2 pM
EC50 (read off the curve) [2]: ~0.05 nM
EC50 (read off the curve) [3]: ~0.1 nM
EC50 (read off the curve) [4]: ~0.06 nM
EC50 of pSTAT4 signaling in human CD8+ T cells [5]: 2.3 pM
EC50 (read off the curve) [6]: ~0.05 nM
B2: H6K3-IgG-IL12 (1×HC) (other)
VH: EVQLVQSGAEVKKPGATVKISCKASGYTFTDFTMHWVQQAPGKGLEWIGLVNPNNGGNIYAEKFQGRVTLTVDTSTSTAYMELSSLRSEDTAVYYCGRVPLYTSHGMDYWGQGTLVTVSS
VL: EIVLTQSPATLSLSPGERATISCRASESVDSYDINSMHWYQQKPGQAPRLLIYRASHLQSGIPARFSGSGSRTDFTLTISSLEPEDFATYYCQQSNEDPLTFGQGTKLEIK
notes: Humanized 02A01 VH6/VK3 IgG1 with one human IL-12p70 on the C-terminus of the knob heavy chain; Fc with L234A, L235A, P329G, N297A and T366W / T366S, L368A, Y407V; not tied to this name; also called hCD8IgG-1×IL12 (HC); hCD8IgG-IL12 (1 × HC)

EC50 of pSTAT4 signaling in cynomolgus CD8+ T cells [1]: 1.8 pM
EC50 of pSTAT4 signaling in cynomolgus NK cells [1]: 2.4 pM
EC50 (read off the curve) [2]: ~0.03 nM
EC50 (read off the curve) [4]: ~0.04 nM
EC50 of pSTAT4 signaling in human CD8+ T cells [5]: 3.3 pM
EC50 (read off the curve) [6]: ~0.05 nM
B3: H6K3-IgG-IL12 (LC) (other)
VH: B2 VH
VL: B2 VL
notes: Humanized 02A01 VH6/VK3 IgG1 with human IL-12p70 on each light chain C-terminus; Fc with L234A, L235A, P329G, N297A; not tied to this name; also called hCD8IgG-IL12 (LC)
